T1: LPL (Homo sapiens, UniProt P06858)
T1 sequence (P06858 28-475): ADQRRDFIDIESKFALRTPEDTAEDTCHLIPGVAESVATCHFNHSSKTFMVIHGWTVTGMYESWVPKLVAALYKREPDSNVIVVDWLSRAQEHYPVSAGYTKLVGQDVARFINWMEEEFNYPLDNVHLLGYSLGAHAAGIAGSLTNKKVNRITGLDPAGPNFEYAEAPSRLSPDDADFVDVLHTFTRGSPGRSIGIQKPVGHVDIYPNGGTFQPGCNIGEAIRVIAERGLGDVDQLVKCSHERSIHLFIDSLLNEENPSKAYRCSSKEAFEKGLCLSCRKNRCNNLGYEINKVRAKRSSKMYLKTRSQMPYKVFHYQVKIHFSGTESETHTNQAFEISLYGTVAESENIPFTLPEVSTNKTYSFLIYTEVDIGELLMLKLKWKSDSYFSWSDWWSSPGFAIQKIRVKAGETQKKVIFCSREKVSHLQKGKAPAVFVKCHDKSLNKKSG

B1: Fiaf: secreted protein, a potent inhibitor of LPL in vitro (protein)
chain: QGRPAQPEPPRFASWDEMNLLAHGLLQLGHGLREHVERTRGQLGALERRMAACGNACQGPKGKDAPFKDSEDRVPEGQTPETLQSLQTQLKAQNSKIQQLFQKVAQQQRYLSKQNLRIQNLQSQIDLLAPTHLDNGVDKTSRGKRLPKMTQLIGLTPNATHLHRPPRDCQELFQEGERHSGLFQIQPLGSPPFLVNCEMTSDGGWTVIQRRLNGSVDFNQSWEAYKDGFGDPQGEFWLGLEKMHSITGNRGSQLAVQLQDWDGNAKLLQFPIHLGGEDTAYSLQLTEPTANELGATNVSPNGLSLPFSTWDQDHDLRGDLNCAKSLSGGWWFGTCSHSNLNGQYFHSIPRQRQERKKGIFWKTWKGRYYPLQATTLLIQPMEATAAS

Key:
[1] = target: Lipoprotein lipase (LPL) (mouse) (UniProt P11152); assay: cell-based or functional assay
Lipoprotein lipase (LPL) (mouse), sequence (P11152 28-474 limits assumed): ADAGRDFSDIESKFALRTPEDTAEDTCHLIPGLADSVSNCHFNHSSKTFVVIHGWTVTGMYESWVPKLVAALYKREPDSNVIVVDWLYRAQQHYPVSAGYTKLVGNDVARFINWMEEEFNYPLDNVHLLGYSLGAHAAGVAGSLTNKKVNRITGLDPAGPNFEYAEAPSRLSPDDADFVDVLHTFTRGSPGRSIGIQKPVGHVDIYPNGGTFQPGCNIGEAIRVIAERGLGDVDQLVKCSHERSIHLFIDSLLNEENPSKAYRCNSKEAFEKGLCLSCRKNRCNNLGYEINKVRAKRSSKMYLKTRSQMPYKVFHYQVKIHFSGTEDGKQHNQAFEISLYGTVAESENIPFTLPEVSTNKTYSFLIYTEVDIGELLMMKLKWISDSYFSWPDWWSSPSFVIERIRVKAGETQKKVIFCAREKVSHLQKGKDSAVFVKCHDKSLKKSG

LPL = target: T1, LPL; conditions: in vitro; read-out: IC50 for inhibition of LPL; cited from earlier work

Molecule | epididymal fat pad LPL activity, GF Fiaf-/- mice versus GF littermates containing the wild-type Fiaf allele [1] [% higher] | IC50 (LPL) [nM]
Fasting-induced adipose factor (Fiaf) (from UniProt Q9Z1P8 24-410) | 67 | –
B1 | – | 200

From patent publication US20050239706A1, “Modulation of fiaf and the gastrointestinal microbiota as a means to control energy storage in a subject” (Washington University in St. Louis, priority 2003, published 2005)
